# Source: patent publication US20240288440A1 (MACFARLANE BURNET INSTITUTE FOR MEDICAL RESEARCH AND PUBLIC …, published 2024)
# B1: chimeric secretory component (CSC) of the polymeric immunoglobulin receptor (receptor)
# chain: QSSLLGPSSIFGPGEVNVLEGDSVSITCYYPTTSVTRHSRKFWCREEESGRCVTLASTGYTSQEYSGRGKLTDFPDKGEFVVTVDQLTQNDSGSYKCGVGVNGRGLDFGVNVLVSQKPELLNDTKVYTVDLGRTVTINCPFKTENAQKRKSLYKQIGLYPVLVIDSSGYVNPNYTGRIRLDIQGTGQLLFSVVINQLRLSDAGQYLCQAGDDSNSNKKNADLQVLKPEPELVYEDLRGSVTFHCALGPEVANVAKFLCRQSSGENCDVVVNTLGKRAPAFEGRILLNPQDKDGSFSVVITGLRKEDAGRYLCGAHSDGQLQEGSPIQAWQLFVNEESTIPRSPTVVKGVAGGSVAVLCPYNRKESKSIKYWCLWEGAQNGRCPLLVDSEGWVKAQYEGRLSLLEEPGNGTFTVILNQLTSRDAGFYWCLTNGDTLWRTTVEIKIIEGEPNLKVPGNVTAVLGETLKVPCHFPCKFSSYEKYWCKWNNTGCQALPSQDEGPSKAFVNCDENSRLVSLTLNLVTRADEGWYWCGVKQGHFYGETAAVYVAVEERKAAGSRDVSLAKADAAPDEKVLDSGFREIENKAIQDPRLFAEEKAVADTRDQADGSRASVDSGSSEEQGGSSRR
# notes: also called R/HpIgR; chimeric pIgR; not shown: C-terminal 6 histidine tag
# B2: CB6-IgA2 (monomeric chimeric IgA2 of monoclonal antibody CB6) (antibody)
# heavy: ASEVQLVESGGGLVQPGGSLRLSCAASGFTVSSNYMSWVRQAPGKGLEWVSVIYSGGSTFYADSVKGRFTISRDNSMNTLFLQMNSLRAEDTAVYYCARVLPMYGDYLDYWGQGTLVTVSSASTKGPSVFPLAPSSKSTSGASPTSPKVFPLSLDSTPQDGNVVVACLVQGFFPQEPLSVTWSESGQNVTARNFPPSQDASGDLYTTSSQLTLPATQCPDGKSVTCHVKHYTNPSQDVTVPCPVPPPPPCCHPRLSLHRPALEDLLLGSEANLTCTLTGLRDASGATFTWTPSSGKSAVQGPPERDLCGCYSVSSVLPGCAQPWNHGETFTCTAAHPELKTPLTANITKSGNTFRPEVHLLPPPSEELALNELVTLTCLARGFSPKDVLVRWLQGSQELPREKYLTWASRQEPSQGTTTFAVTSILRVAAEDWKKGDTFSCMVGHEALPLAFTQKTIDRLAGKPTHVNVSVVMAEVDGTCY
# light: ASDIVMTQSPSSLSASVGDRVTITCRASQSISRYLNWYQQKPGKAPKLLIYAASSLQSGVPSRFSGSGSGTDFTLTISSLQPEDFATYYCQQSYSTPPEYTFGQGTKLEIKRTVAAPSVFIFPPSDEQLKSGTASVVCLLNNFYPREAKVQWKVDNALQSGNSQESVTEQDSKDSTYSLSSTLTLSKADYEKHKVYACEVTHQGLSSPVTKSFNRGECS
# notes: also called monomeric CB6-IgA2
# Assays:
# purified IgG = assay: pull-down on CSC beads, reducing SDS-PAGE, bands quantitated
# purified IgM = molecular target: T1, purified IgM; assay: as above
# T1 construct: also called pentameric IgM
# [1] = molecular target: B1; assay: lateral flow assay, CSC test line, detection with RBD-biotin/streptavidin gold
Binder,percent bound (purified IgG) [%],percent bound (purified IgM) [%],binding result [1]
B1,~20,~20,
B2,,,no binding (tested: 100 µg/ml)
